Legend:
[1] = biological target: human serum amyloid P component (SAP) (human) (UniProt P02743); assay: Biacore; isolated pure SAP alone immobilised on the chip
[2] = biological target: human serum amyloid P component (SAP) (human) (UniProt P02743); assay: IRMA; SAP non-covalently immobilised; antibody at 0.01 µg/ml; radiolabelled sheep polyvalent anti-mouse IgG
[3] = biological target: human serum amyloid P component (SAP) (human) (UniProt P02743); assay: IRMA; SAP non-covalently immobilised; antibody at 10 µg/ml; radiolabelled sheep polyvalent anti-mouse IgG
[4] = biological target: human SAP complexed with CPHPC and covalently cross linked with BS3 (human) (UniProt P02743); assay: IRMA; SAP-CPHPC complex captured on immobilised sheep polyclonal anti-human SAP; in calcium; radiolabelled sheep anti-mouse IgG; mean n=3
Sequence of human SAP complexed with CPHPC and covalently cross linked with BS3 (human) (P02743 20-223, one chain of several): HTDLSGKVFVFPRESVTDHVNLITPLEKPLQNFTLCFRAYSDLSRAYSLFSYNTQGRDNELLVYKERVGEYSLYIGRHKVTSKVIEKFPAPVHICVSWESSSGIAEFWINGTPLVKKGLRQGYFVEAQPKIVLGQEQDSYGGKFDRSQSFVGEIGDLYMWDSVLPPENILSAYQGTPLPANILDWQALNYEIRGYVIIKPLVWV

[5] = biological target: human SAP complexed with CPHPC and covalently cross linked with BS3 (human) (UniProt P02743); assay: IRMA; SAP-CPHPC complex covalently immobilised; in EDTA; radiolabelled sheep anti-mouse IgG; mean n=3
[6] = biological target: human serum amyloid P component (SAP) (human) (UniProt P02743); assay: IRMA; SAP alone captured on immobilised sheep polyclonal anti-human SAP; in calcium; radiolabelled sheep anti-mouse IgG; mean n=3
[7] = biological target: human serum amyloid P component (SAP) (human) (UniProt P02743); assay: IRMA; SAP non-covalently immobilised; antibody at 0.1 µg/ml; radiolabelled sheep polyvalent anti-mouse IgG
[8] = biological target: human serum amyloid P component (SAP) (human) (UniProt P02743); assay: IRMA; SAP non-covalently immobilised; antibody at 1 µg/ml; radiolabelled sheep anti-mouse IgG2a
[9] = biological target: human serum amyloid P component (SAP) (human) (UniProt P02743); assay: IRMA; SAP non-covalently immobilised; antibody at 0.01 µg/ml; radiolabelled sheep anti-mouse IgG2a
[10] = biological target: human serum amyloid P component (SAP) (human) (UniProt P02743); assay: IRMA; SAP alone covalently immobilised; in EDTA; radiolabelled sheep anti-mouse IgG; mean n=3
[11] = biological target: human serum amyloid P component (SAP) (human) (UniProt P02743); assay: IRMA; SAP non-covalently immobilised; antibody at 1 µg/ml; radiolabelled sheep polyvalent anti-mouse IgG
[12] = biological target: human serum amyloid P component (SAP) (human) (UniProt P02743); assay: IRMA; SAP alone covalently immobilised; in calcium; radiolabelled sheep anti-mouse IgG; mean n=3
[13] = biological target: human SAP complexed with CPHPC and covalently cross linked with BS3 (human) (UniProt P02743); assay: IRMA; SAP-CPHPC complex covalently immobilised; in calcium; radiolabelled sheep anti-mouse IgG; mean n=3
[14] = biological target: human serum amyloid P component (SAP) (human) (UniProt P02743); assay: IRMA; SAP non-covalently immobilised; antibody at 0.001 µg/ml; radiolabelled sheep anti-mouse IgG2a
[15] = biological target: human serum amyloid P component (SAP) (human) (UniProt P02743); assay: IRMA; SAP non-covalently immobilised; antibody at 10 µg/ml; radiolabelled sheep anti-mouse IgG2a
[16] = biological target: human serum amyloid P component (SAP) (human) (UniProt P02743); assay: IRMA; SAP non-covalently immobilised; antibody at 0.001 µg/ml; radiolabelled sheep polyvalent anti-mouse IgG
[17] = biological target: human serum amyloid P component (SAP) (human) (UniProt P02743); assay: IRMA; SAP non-covalently immobilised; antibody at 0.1 µg/ml; radiolabelled sheep anti-mouse IgG2a
[18] = biological target: human serum amyloid P component (SAP) (human) (UniProt P02743); assay: IRMA; SAP non-covalently immobilised; antibody at 100 µg/ml; radiolabelled sheep polyvalent anti-mouse IgG
[19] = biological target: human serum amyloid P component (SAP) (human) (UniProt P02743); assay: IRMA; SAP non-covalently immobilised; antibody at 100 µg/ml; radiolabelled sheep anti-mouse IgG2a

Sequence of human serum amyloid P component (SAP) (human) (P02743 20-223): as the sequence (P02743 20-223, one chain of several) above

koff [1]: 6e-05 s⁻¹
kon [1]: 20000 M⁻¹ s⁻¹
Activity bound (d.p.m.) [2]: 902 d.p.m.
Activity bound (d.p.m.) [3]: 15400 d.p.m.
Activity bound (d.p.m.) [4]: 7120 d.p.m.
Activity bound (d.p.m.) [5]: 5140 d.p.m.
Activity bound (d.p.m.) [6]: 9310 d.p.m.
Activity bound (d.p.m.) [7]: 4560 d.p.m.
Activity bound (d.p.m.) [8]: 1650 d.p.m.
Activity bound (d.p.m.) [9]: 222 d.p.m.
Activity bound (d.p.m.) [10]: 4050 d.p.m.
Activity bound (d.p.m.) [11]: 12100 d.p.m.
Activity bound (d.p.m.) [12]: 5580 d.p.m.
Activity bound (d.p.m.) [13]: 6160 d.p.m.
Activity bound (d.p.m.) [14]: 94 d.p.m.
Activity bound (d.p.m.) [15]: 1980 d.p.m.
Activity bound (d.p.m.) [16]: 195 d.p.m.
Activity bound (d.p.m.) [17]: 589 d.p.m.
Activity bound (d.p.m.) [18]: 16200 d.p.m.
Activity bound (d.p.m.) [19]: 2200 d.p.m.
Substance: SAP-5 (antibody)
